From US20240317847A1 (Bayer, published 2024)
Values joined by “and” are separate entries in the source; they are usually repeats but may differ in a detail not shown here. Equal values may be shown once.

T1: human IL-11 (human, UniProt P20809 22-199)
T1 construct: bought from Invigate; also called hIL-11; hIL11
T1 sequence: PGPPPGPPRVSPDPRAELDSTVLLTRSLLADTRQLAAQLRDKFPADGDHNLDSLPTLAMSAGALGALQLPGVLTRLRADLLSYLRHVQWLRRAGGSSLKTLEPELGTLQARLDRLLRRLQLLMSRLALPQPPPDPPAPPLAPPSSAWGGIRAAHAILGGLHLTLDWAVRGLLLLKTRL

T2: murine IL-11 (mouse, UniProt P47873 22-199)
T2 construct: bought from Invigate; also called mIL-11; mIL11
T2 sequence: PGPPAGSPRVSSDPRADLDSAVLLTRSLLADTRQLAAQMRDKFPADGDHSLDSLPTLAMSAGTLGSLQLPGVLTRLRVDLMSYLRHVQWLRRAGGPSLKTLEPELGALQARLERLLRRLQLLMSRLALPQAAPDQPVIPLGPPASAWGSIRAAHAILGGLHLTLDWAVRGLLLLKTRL


Assays:
human IL-11 [1] = molecular target: T1, human IL-11; test: SPR, IgG captured via anti-human Fc, IL-11 as analyte
Method: (§1) Antibody binding affinity to hIL-11 (Invigate, Germany, e.g., lot #C121021-19) and mIL-11 (Invigate, Germany, e.g., lot #C210819-09) was detected using Biacore 8K. Each antibody was captured on an anti-human IgG Fc antibody immobilized CM5 sensor chip (GE). hIL-11 and mIL-11 at different concentrations (0, 5, 15.82 and 50 nM) in 1×HBS-EP+ (pH 7.4) (GE healthcare) were injected over the sensor chip at a flow rate of 30 μL/min for an association phase of 120 s, followed by 200 s dissociation phase. The chip was then regenerated by 10 mM Glycine, pH 1.5 after each binding cycle.
(§2) The sensorgrams of blank surface and buffer channel were subtracted from the test sensorgrams. The experimental data was fitted by 1:1 model using Langmiur analysis. Molecular weight of 19.3 kDa was used to calculate the molar concentration of human and mouse IL-11.
(§3) 16 AB were produced as described in Example 21 and binding of purified AB to human and mouse IL-11 was analyzed using SPR as described in Example 21.

murine IL-11 [2] = molecular target: T2, murine IL-11; test: as above
Method: as §1, §2, §3

human IL-11 [3] = molecular target: T1, human IL-11; test: cell-based or functional assay
murine IL-11 [4] = molecular target: T2, murine IL-11; test: cell-based or functional assay
human IL-11 [5] = molecular target: T1, human IL-11; test: cell-based or functional assay; remark: listed apart in the source
murine IL-11 [6] = molecular target: T2, murine IL-11; test: cell-based or functional assay; remark: listed apart in the source

Binder | Kd (human IL-11 [1]) [nM] | Kd (murine IL-11 [2]) [nM] | IC50, RGA (human IL-11 [3]) [nM] | IC50, RGA (murine IL-11 [4]) [nM] | IC50, RGA 1 (human IL-11 [5]) | IC50, RGA 2 (human IL-11 [5]) [nM] | IC50, RGA 1 (murine IL-11 [6]) | IC50, RGA 2 (murine IL-11 [6]) [nM]
TPP-31312 (antibody, IgG4, V domains shown, also called WT antibody; chimeric antibody) VH: EVQLLESGGGLVQPGGSLRLSCAASGFTFSHYDMNWLRQAPGKGLEWVGVISYDGSNKFYADFVKGRFTISRDNSKNTLYLQMNSLRAEDTAVYYCARTPGSHFDYWGQGTLVTVSS VL: QSVLTQPPSASGTPGQRVTISCSGSSSNIGNNAVNWYQQLPGTAPKLLIYYDDLLPSGVPDRFSGSKSGTSASLAISGLRSEDEADYYCSAWDDSLNGVVFGGGTKLTVL | 5.3 | 9.3 | 8.9 | 9.8 | 163 nM and 171 nM | 80 | 31 nM and 75 nM | 20
TPP-31325 (antibody, human IgG4 S228P, lambda, V domains shown, hIgG4-SPLE, Lambda; also called final germline; FB with a back-mutation VL-A90S) VH: QVQLVESGGGVVQPGRSLRLSCAASGFTFSHYDMHWVRQAPGKGLEWVAVISYEGSNKFYADSVKGRFTISRDNSKNTLYLQMNSLRAEDTAVYYCARTPGSHFDYWGQGTLVTVSS VL: QSVLTQPPSASGTPGQRVTISCSGSSSNIGSNYVNWYQQLPGTAPKLLIYYDDLRPSGVPDRFSGSKSGTSASLAISGLRSEDEADYYCSAWDDSLSGVVFGGGTKLTVLG | 0.59 | 0.35 | 1.2 | 0.6 | – | – | – | –
TPP-31328 (antibody, IgG4, V domains shown, hIgG4 SPLE, lambda; FB + 2, plus VH-F59Y & VL-D53N) VH: QVQLVESGGGVVQPGRSLRLSCAASGFTFSHYDMHWVRQAPGKGLEWVAVISYEGSNKYYADSVKGRFTISRDNSKNTLYLQMNSLRAEDTAVYYCARTPGSHFDYWGQGTLVTVSS VL: not shown | 1.8 | 1.8 | 7.9 | 2.1 | – | – | – | –
TPP-31324 (antibody, IgG4, V domains shown, hIgG4 SPLE, lambda; FB - 1, back mutation VL-R55L) VH: QVQLVESGGGVVQPGRSLRLSCAASGFTFSHYDMHWVRQAPGKGLEWVAVISYEGSNKFYADSVKGRFTISRDNSKNTLYLQMNSLRAEDTAVYYCARTPGSHFDYWGQGTLVTVSS VL: QSVLTQPPSASGTPGQRVTISCSGSSSNIGSNYVNWYQQLPGTAPKLLIYYDDLLPSGVPDRFSGSKSGTSASLAISGLRSEDEADYYCAAWDDSLSGVVFGGGTKLTVL | 0.79 | 0.5 | 2.9 | 1 | – | – | – | –
TPP-31326 (antibody, IgG4, V domains shown, hIgG4 SPLE, lambda; FB + 1, plus VH-F59Y) VH: QVQLVESGGGVVQPGRSLRLSCAASGFTFSHYDMHWVRQAPGKGLEWVAVISYEGSNKYYADSVKGRFTISRDNSKNTLYLQMNSLRAEDTAVYYCARTPGSHFDYWGQGTLVTVSS VL: not shown | 1.7 | 1.2 | 3.6 | 3.3 | – | – | – | –
TPP-31327 (antibody, IgG4, V domains shown, hIgG4 SPLE, lambda; FB + 1, plus VL-D53N) VH: QVQLVESGGGVVQPGRSLRLSCAASGFTFSHYDMHWVRQAPGKGLEWVAVISYEGSNKFYADSVKGRFTISRDNSKNTLYLQMNSLRAEDTAVYYCARTPGSHFDYWGQGTLVTVSS VL: not shown | 1 | 0.85 | 3.1 | 2.1 | – | – | – | –
